Consider five molecules from US20240043507A1 (RQ BIOTECHNOLOGY, published 2024).

Test [1] concerns the target T1, SARS-CoV-2 receptor binding domain (RBD), native (SARS-CoV-2, UniProt P0DTC2 330-532).
T1 construct: range 330-532
In words: method and antigen not stated there.

The target in test [2] is T1, SARS-CoV-2 receptor binding domain …. In words: BLI, RBD/Fab; de-glycosylated Fab 316. Background: Biolayer interferometry detects binding as a change in optical thickness at a sensor tip.
Test [3] has the same target. As to the kind of experiment: BLI, RBD/Fab; de-glycosylated Fab 88.
The target is the same in test [4]. In words: BLI, RBD/Fab; glycosylated Fab 88.
Test [5] deals with T2, SARS-CoV-2 spike receptor binding domain (RBD), His-tagged (SARS-CoV-2 (Wuhan-Hu-1 strain), UniProt P0DTC2 330-532).
T2 construct: range 330-532
As to the kind of experiment: X-ray crystal structure of the ternary complex RBD/Fab 253/Fab 75.

B1: mAb 45 (antibody, V domains shown)
VH: QVQLVESGGGVVQPGRSLRLSCAASGFTFSTYAMHWVRQAPGKGLEWVAVLSYDGSNKYYADSVKGRFTISRDNSKNTLYLQMNSLRAEDTAVYYCAKGGSYAYYYYMDVWGKGTTVTVSS
VL: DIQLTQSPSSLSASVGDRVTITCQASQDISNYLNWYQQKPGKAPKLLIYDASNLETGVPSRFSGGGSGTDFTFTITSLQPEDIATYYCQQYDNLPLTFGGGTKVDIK
notes: also called antibody 45
A word on the Kd: it is the free concentration of one partner at which half of the binding sites on the other are occupied at equilibrium, for simple one-to-one binding. Higher therefore signals weaker binding. With B1, in test [1], the Kd was 0.018 µg/mL.

B2: Fab 316, de-glycosylated (Fab, V domains shown)
VH: not shown
VL: QAVLTQPPSASGSPGQSVTISCTGTSSDVGGYNYVSWYQQHPGKAPKLMIYEVSKRPSGVPDRFSGSKSGNTASLTVSGLQAEDEADYYCSSYAGSNHWVFGGGTKLTVL
In the case of B2, the Kd in test [2] came out at 1 nM.

B3: Fab 88, de-glycosylated (Fab, V domains shown)
VH: QLQLQESGPGLVKPSQTLSLTCTVSGGSISSGSYNWTWIRQPAGKGLEWIGRIYNSGSTNYNPSLKSRVTISVDTSKNQLSLKVRSVTAADTAVYYCARHCSGGTCYPKYYYGMDVWGQGTTVTVSS
VL: QSALTQPPSVSEAPRQRVTISCSGSSSNIGNNAVNWYQQFPGKAPKLLIYYDDLLPSGVSDRFSGSKSGTSASLAISGVQSEDEADYYCAAWDDSLNVVVFGGGTKLTVL
As to B3, binding in test [3] was characterised by a dissociation constant (Kd) of 0.8 nM.

B4: Fab 88 (Fab, V domains shown)
VH: QLQLQESGPGLVKPSQTLSLTCTVSGGSISSGSYNWTWIRQPAGKGLEWIGRIYNSGSTNYNPSLKSRVTISVDTSKNQLSLKVRSVTAADTAVYYCARHCSGGTCYPKYYYGMDVWGQGTTVTVSS
VL: QSALTQPPSVSEAPRQRVTISCSGSSSNIGNNAVNWYQQFPGKAPKLLIYYDDLLPSGVSDRFSGSKSGTSASLAISGVQSEDEADYYCAAWDDSLNVVVFGGGTKLTVL
notes: also called 88 Fab (glycosylated)
In test [4], B4 registered a Kd of 1.2 nM.

B5: Fab 75 (Fab, V domains shown)
VH: QVQLVESGGGVVQPGRSLRLSCAASGFTFNNYPLHWVRQAPGKGPEWVAVISQDGGNKYYVDSVKGRFTISRDNSKNTLYLQMNNLRAEDTALYYCARDVVVVVAARNHYYNGMDVWGQGTTVTVSS
VL: DIQLTQSPSSVSASVGDRVTITCRASQGISSWLAWYQQKPGKAPKLLIYAVSSLQSGVPSRFSGSGSGTDFTLTISSLQPEDFATYYCQQAKSFPFTFGPGTKVEIK
As for B5, the binding result in test [5] is “binds”.
